Values belong to the binder of their own block, whether it stands above or below them.
Columns and labels:
[1] = target: T1, ATG9A with N-terminal 6xHis and Twin-StrepII tags (human, UniProt Q7Z3C6 1-839); test: cryo-EM structure
T1 sequence: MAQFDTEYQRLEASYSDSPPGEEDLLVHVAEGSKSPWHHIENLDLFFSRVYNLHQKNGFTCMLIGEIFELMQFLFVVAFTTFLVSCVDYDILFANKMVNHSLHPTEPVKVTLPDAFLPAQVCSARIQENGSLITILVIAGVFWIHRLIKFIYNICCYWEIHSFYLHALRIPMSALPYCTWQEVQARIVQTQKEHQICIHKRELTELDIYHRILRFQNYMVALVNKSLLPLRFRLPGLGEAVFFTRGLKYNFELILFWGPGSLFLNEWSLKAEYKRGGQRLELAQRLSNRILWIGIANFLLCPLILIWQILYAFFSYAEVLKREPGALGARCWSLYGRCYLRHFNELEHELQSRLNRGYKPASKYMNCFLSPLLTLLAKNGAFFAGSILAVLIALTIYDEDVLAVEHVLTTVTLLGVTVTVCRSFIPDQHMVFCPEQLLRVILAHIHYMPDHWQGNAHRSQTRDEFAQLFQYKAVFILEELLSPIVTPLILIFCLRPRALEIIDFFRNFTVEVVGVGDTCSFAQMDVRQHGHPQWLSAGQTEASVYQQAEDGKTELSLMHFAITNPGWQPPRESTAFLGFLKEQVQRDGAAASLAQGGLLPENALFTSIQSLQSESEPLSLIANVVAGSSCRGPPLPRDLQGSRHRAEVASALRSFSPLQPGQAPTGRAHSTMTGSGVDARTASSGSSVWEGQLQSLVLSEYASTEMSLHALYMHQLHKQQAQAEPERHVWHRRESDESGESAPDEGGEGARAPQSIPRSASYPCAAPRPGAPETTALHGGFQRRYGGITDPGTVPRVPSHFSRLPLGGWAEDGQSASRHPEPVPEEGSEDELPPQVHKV

[2] = target: T2, ATG9A with N-terminal 6xHis and Twin-StrepII tags (human), Q7Z3C6; test: cryo-EM structure; details: remark: other sources report otherwise
T2 chain: T1 sequence

stoichiometry N [1]: 1 ATG2A per ATG9A trimer
B1: human ATG2A, full length (natural protein)
chain: MSRWLWPWSNCVKERVCRYLLHHYLGHFFQEHLSLDQLSLDLYKGSVALRDIHLEIWSVNEVLESMESPLELVEGFVGSIEVAVPWAALLTDHCTVRVSGLQLTLQPRRGPAPGAADSQSWASCMTTSLQLAQECLRDGLPEPSEPPQPLEGLEMFAQTIETVLRRIKVTFLDTVVRVEHSPGDGERGVAVEVRVQRLEYCDEAVRDPSQAPPVDVHQPPAFLHKLLQLAGVRLHYEELPAQEEPPEPPLQIGSCSGYMELMVKLKQNEAFPGPKLEVAGQLGSLHLLLTPRQLQQLQELLSAVSLTDHEGLADKLNKSRPLGAEDLWLIEQDLNQQLQAGAVAEPLSPDPLTNPLLNLDNTDLFFSMAGLTSSVASALSELSLSDVDLASSVRSDMASRRLSAQAHPAGKMAPNPLLDTMRPDSLLKMTLGGVTLTLLQTSAPSSGPPDLATHFFTEFDATKDGPFGSRDFHHLRPRFQRACPCSHVRLTGTAVQLSWELRTGSRGRRTTSMEVHFGQLEVLECLWPRGTSEPEYTEILTFPGTLGSQASARPCAHLRHTQILRRVPKSRPRRSVACHCHSELALDLANFQADVELGALDRLAALLRLATVPAEPPAGLLTEPLPAMEQQTVFRLSAPRATLRLRFPIADLRPEPDPWAGQAVRAEQLRLELSEPQFRSELSSGPGPPVPTHLELTCSDLHGIYEDGGKPPVPCLRVSKALDPKSTGRKYFLPQVVVTVNPQSSSTQWEVAPEKGEELELSVESPCELREPEPSPFSSKRTMYETEEMVIPGDPEEMRTFQSRTLALSRCSLEVILPSVHIFLPSKEVYESIYNRINNDLLMWEPADLLPTPDPAAQPSGFPGPSGFWHDSFKMCKSAFKLANCFDLTPDSDSDDEDAHFFSVGASGGPQAAAPEAPSLHLQSTFSTLVTVLKGRITALCETKDEGGKRLEAVHGELVLDMEHGTLFSVSQYCGQPGLGYFCLEAEKATLYHRAAVDDYPLPSHLDLPSFAPPAQLAPTIYPSEEGVTERGASGRKGQGRGPHMLSTAVRIHLDPHKNVKEFLVTLRLHKATLRHYMALPEQSWHSQLLEFLDVLDDPVLGYLPPTVITILHTHLFSCSVDYRPLYLPVRVLITAETFTLSSNIIMDTSTFLLRFILDDSALYLSDKCEVETLDLRRDYVCVLDVDLLELVIKTWKGSTEGKLSQPLFELRCSNNVVHVHSCADSCALLVNLLQYVMSTGDLHPPPRPPSPTEIAGQKLSESPASLPSCPPVETALINQRDLADALLDTERSLRELAQPSGGHLPQASPISVYLFPGERSGAPPPSPPVGGPAGSLGSCSEEKEDEREEEGDGDTLDSDEFCILDAPGLGIPPRDGEPVVTQLHPGPIVVRDGYFSRPIGSTDLLRAPAHFPVPSTRVVLREVSLVWHLYGGRDFGPHPGHRARTGLSGPRSSPSRCSGPNRPQNSWRTQGGSGRQHHVLMEIQLSKVSFQHEVYPAEPATGPAAPSQELEERPLSRQVFIVQELEVRDRLASSQINKFLYLHTSERMPRRAHSNMLTIKALHVAPTTNLGGPECCLRVSLMPLRLNVDQDALFFLKDFFTSLVAGINPVVPGETSAEARPETRAQPSSPLEGQAEGVETTGSQEAPGGGHSPSPPDQQPIYFREFRFTSEVPIWLDYHGKHVTMDQVGTFAGLLIGLAQLNCSELKLKRLCCRHGLLGVDKVLGYALNEWLQDIRKNQLPGLLGGVGPMHSVVQLFQGFRDLLWLPIEQYRKDGRLMRGLQRGAASFGSSTASAALELSNRLVQAIQATAETVYDILSPAAPVSRSLQDKRSARRLRRGQQPADLREGVAKAYDTVREGILDTAQTICDVASRGHEQKGLTGAVGGVIRQLPPTVVKPLILATEATSSLLGGMRNQIVPDAHKDHALKWRSDSAQD

stoichiometry N [2]: 3
B2: ATG9A with N-terminal 6xHis and Twin-StrepII tags, Q7Z3C6 1-839 (natural protein)
chain: T1 sequence

Reference: paper doi:10.1101/2023.07.08.548186 (bioRxiv, 2023)
